What follows are binders tested against HLA-A*24 MHC class I molecule (peptide-receptive after UV-ligand exchange) (human) (assay: UV-ligand exchange, anti-b2m ELISA; grade of peptide exchange yield (>=10% = +; >=20% = ++; >=50 = +++; >=75% = ++++)).

| Binder | peptide exchange yield |
| --- | --- |
| RYLQKIEEF [peptide … (SEQ ID No. 41)] | 50 to 75% |
| AYIKNGQLF [peptide … (SEQ ID No. 43)] | 50 to 75% |
| IYEPYLAMF [peptide … (SEQ ID No. 25)] | 50 to 75% |
| SYTPVLNQF [peptide … (SEQ ID No. 47)] | > 75% |
| AYSEKVTEF [peptide … (SEQ ID No. 54)] | 50 to 75% |
| LFHPEDTGQVF [peptide … (SEQ ID No. 56)] | 20 to 50% |
| AFSPDSHYLLF [peptide … (SEQ ID No. 34)] | 50 to 75% |
| IYTRVTYYL [peptide … (SEQ ID No. 35)] | 20 to 50% |
| TYIGQGYII [peptide … (SEQ ID No. 42)] | 50 to 75% |
| RYADDTFTPAF [peptide … (SEQ ID No. 26)] | 50 to 75% |
| RYGSPINTF [peptide … (SEQ ID No. 29)] | 50 to 75% |
| SYSPAHARL [peptide … (SEQ ID No. 30)] | 50 to 75% |
| VYNTVSEGTHF [peptide … (SEQ ID No. 44)] | 50 to 75% |
| QYGKDFLTL [peptide … (SEQ ID No. 33)] | 50 to 75% |
| AYTSPPSFF [peptide … (SEQ ID No. 31)] | 50 to 75% |
| AWAPKPYHKF [peptide … (SEQ ID No. 48)] | 50 to 75% |
| LYFEKGEYF [peptide … (SEQ ID No. 55)] | > 75% |
| YYAKEIHKF [peptide … (SEQ ID No. 28)] | > 75% |
| GYIDKVRQL [peptide … (SEQ ID No. 58)] | 20 to 50% |
| IYPDVTYAF [peptide … (SEQ ID No. 59)] | 50 to 75% |
| PYQLNASLFTF [peptide … (SEQ ID No. 32)] | > 75% |
| RYMWINQEL [peptide … (SEQ ID No. 36)] | 50 to 75% |
| GYLQGLVSF [peptide … (SEQ ID No. 27)] | > 75% |
| SYNDALLTF [peptide … (SEQ ID No. 24)] | 50 to 75% |
| RYFKTPRKF [peptide … (SEQ ID No. 45)] | 20 to 50% |
